Laboratory results as given in paper PMC10986557, “Inhibition of SARS-CoV-2 replication by a ssDNA aptamer targeting the nucleocapsid protein”.

Molecular target: Nucleocapsid (N) protein (SARS-CoV-2 original strain, UniProt P0DTC9 1-419)
Experiment: flow cytometry (bead-immobilized protein); 1x SB
Settings: protein: recombinant; tags: His6 (pET28a); chain copies: 2

B1: N-Apt17 (ssDNA)
DNA: GCTGGATGTTCATGCTGGCAAAAGGTGTCACTCCATTCCTTAGGGGCACCGGAAGCATCTCTTTACTTTGACACATCCAGC
  binding result: binds
